Measured values: PMC10350043
Where no end group is shown, it is not given here. QXL520 = dark acceptor

Columns and labels:
Test in all cases: FRET or BRET
[1] = biological target: RyR2 in cardiac SR membranes decorated with D-85-FKBP (porcine (endogenous in porcine heart) | human)
[2] = biological target: RyR2 in cardiac SR membranes decorated with D-49-FKBP (porcine (endogenous in porcine heart) | human)
[3] = biological target: RyR2 in cardiac SR membranes decorated with D-32-FKBP (porcine (endogenous in porcine heart) | human)

Work on QXL520-GFCPDHKAAMVLFLDRVYGIEVQDFLLHLLEVGFLP [acceptor-labeled DPc10 (QXL520 at the N-terminus)] yielded a Kd [1] of 10.4 µM, a Kd [2] of 9.9 µM and a Kd [3] of 13.1 µM.
